# ± gives the uncertainty stated by the source.
# Test: amyloid nucleation score (Sup35N fusion, yeast selection) (log enrichment); library NNK3; higher = more nucleation; inactive = no reads after selection
# Outline: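 The nucleation score, computed with DiMSum, is the log enrichment of output over input reads, centred on the mode score of non-aggregating sequences. Sequences with under 100 input reads were dropped. Reads were generated by Illumina sequencing of plasmid inserts from psi-negative yeast with Sup35N fused to peptides of 20 random codons, induced with 100 μM copper sulfate for 24 hours and grown 7 days at 30°C on medium lacking adenine and uracil.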
row,Substance,amyloid nucleation score
1,SALEVFLWNKYLFVDVTLLL,inactive
2,QVGSRRNSS,inactive
3,LHDNRHYGNLTEAL,inactive
4,TYGTCVGQK,inactive
5,YKLICMSSRWTFLSSRQGEF,inactive
6,IALIICEGLPRMRGSSGPVG,inactive
7,VYFDDRTYRYRVAHIKFSFR,2.94 ± 0.076
8,MFIFGGISFVMVSYLNRAHT,1.13 ± 0.1
9,CGLRIRWSNVLYSRRTCGFT,inactive
10,TTCWVYMLVILA,1.38 ± 0.077
11,GMVWFRFLKYAKC,-1.54 ± 2.4
12,YVLQTFEGSCVLKRLHIRFM,inactive
13,VSLGVNRGG,inactive
14,HLVRIASIRLNCDPLYRSVV,inactive
15,DRRKAEFILTMGPEWYQQLN,inactive
16,VEDGAGGP,inactive
17,GIASFECGDSCKSVN,inactive
18,FSMWCVSCN,inactive
19,QCVCLS,inactive
20,FNCSARNYGTRFFCLMRAGV,-0.654 ± 1.4
21,TFHSM,inactive
22,SGLRASSSVMSCAYLTISWN,inactive
23,SLNLEENLSFHGVCRMYFNE,inactive

row,Substance,amyloid nucleation score
1,YGFMCLVCIGTCDCKRSWQG,2.28 ± 0.086
2,VDNNHYQRKSKGFGVAGLIR,inactive
3,QQVLVVQNKCEWGRHIA,inactive
4,LYVHFSILCTFGWSVPNQEG,inactive
5,RLMYKMMHVSGDEECLFVMV,inactive
6,DFIRRVHYLKLSVWDVMTMR,inactive
7,LYTDDAPGDVFLFNAFRVFH,inactive
8,FRLVGNIRTFYGYR,inactive
9,KIYWGATLNQTSYRVAVCLT,inactive
10,LEGGSITCLSPC,inactive
11,GAGCNVVAAATARSRDGDWS,0.212 ± 0.93
12,NGKWKGWSS,inactive
13,NSLMYFRGKFLFSIYNCYVH,inactive
14,AYFIPYNTWFYKKGMARQFF,inactive
15,SKIFSCYVVLKSMLTDPGVA,inactive
16,VCFRNAFFHCSQMRTCNRVI,0.262 ± 0.74
17,NSLFCTWSSPWVYNPTYGWE,1.26 ± 0.17
18,VFLKSNSAVQLSFRFNYHNL,inactive
19,RLFFNPVVVVIWPGVRNVGV,0.189 ± 0.66
20,MGHSDNGEDTSTWLCDRRVV,inactive
21,GRGSKLVCVR,2.63 ± 0.071
22,RWIFIT,inactive
23,RDLCIPWLCRAFFPAMCVVI,inactive

row,Substance,amyloid nucleation score
1,PDRMIGGLSFRKFDISCPYA,inactive
2,TSIIRMAPRPTHSRVIWFKV,inactive
3,VITVIFVSYYCIPVWYW,1.81 ± 0.099
4,YSGWTPKLAVH,inactive
5,TGVSIKFTSSKYYSVTSATT,inactive
6,VILMFDSCGGFDW,inactive
7,FDLEMSSGFPTIELWMR,inactive
8,CIFFRVGSFLNYFYASAWHS,inactive
9,GNFESVSDRKFSISFHCWHS,inactive
10,CDVHTGRCDSCYTGNSTKFG,inactive
11,KAPVVWYDMEARQKCVRGGG,inactive
12,DIAKCNACGHENMFCRWMCV,inactive
13,HLYYAP,inactive
14,GIFCGLTGLIDGMRTQHSEL,0.816 ± 0.12
15,LQSEPVLSDTSMSGVVASYF,inactive
16,HSSLNGRNG,inactive
17,YFINSFCVAVWIICHQGVCA,inactive
18,CMTTASVQDKMVLLVWLLDE,inactive
19,MISRSSNKGV,inactive
20,FSVSASEKHFFSCVMLYCVS,0.935 ± 0.1
21,IDCLFRLAGYWSALWTFVLF,inactive
22,LSMTGV,inactive
23,MLGDLAYCGYMSSAGVGSLI,inactive

row,Substance,amyloid nucleation score
1,YSANDLPVNAHGEILKVGLL,inactive
2,DGDYL,inactive
3,EVYMFFSCPSSNHVWDSRYV,inactive
4,TSSLWHWMCLEITLPSRSCK,inactive
5,PSTGLNSVKNRIDVSCGFR,inactive
6,SLDCARNFRFGQTVFCCVGY,1.21 ± 0.18
7,SMSIYPVCLTF,inactive
8,LRQNTYMLLSGNIVCRIVSF,inactive
9,IFCAKSIIGIPGTDPRCRPD,1.5 ± 0.13
10,ERESKNLLQVAYSGYCIVWA,inactive
11,LNSGIS,0.103 ± 0.24
12,CLFVCDYGLFECGQMVVEVY,inactive
13,QFSRPGIFNFHRWDSRYRAA,inactive
14,TCHDGHGAGRTVSGVFGGVA,inactive
15,YLMVSVNFFSYVLSESRMCG,0.85 ± 0.12
16,CVTYSYCYCQANHFHCRCQQ,2.88 ± 0.062
17,VRVLMSL,-0.087 ± 0.45
18,LFPYMDCNSGTELFYGFIVQ,inactive
19,VFCLVYKKCLKSYCQYMVIG,inactive
20,VYQGMYNKSAYC,inactive
21,QKIVSPRSGGFASPRMRQKV,inactive
22,LIIGHVFGFHGYVDWDDGTC,inactive
23,NSIQCKRTVCILSGSTVMRE,inactive

row,Substance,amyloid nucleation score
1,LFLDWALIFLV,inactive
2,SGTFYANVWFRFISFGWYLR,inactive
3,RSAERRAQNSNFKLVDLGRN,inactive
4,RDSQRSVRVTAIDG,inactive
5,PLFHVFLELYTLPFVENFDV,inactive
6,SYYSSDKMIVSVGLLKRDAK,inactive
7,FLANPWCIVARLCSNHVIVH,inactive
8,SLNLWGLRSKVPDVWRMLMR,inactive
9,QCVRSMLEELRIGYKVHRQS,inactive
10,QYCSGSLKFRGVPIFNGDDG,inactive
11,CVRSTCQALGMGRWEPHCAI,inactive
12,VRVILNAGLKNGRKVLNLGR,inactive
13,SSLLANRYVWLDKLRHWHWR,inactive
14,VVFYTSGARDRICHMDVHRP,0.113 ± 0.69
15,GINHNGRVECNRFKMNY,inactive
16,EKLIIELLCTT,inactive
17,LMSVLRFQTP,inactive
18,RFSGM,inactive
19,AIYKGSWEPFGIDA,inactive
20,QIQGMNSQKRLRLKKP,inactive
21,KYEMTIPSSVLRALSNKHWL,-0.539 ± 1.4
22,SLGSCFSTCAVVHQRMKLGG,inactive
23,TSNFCPFTVQN,-0.477 ± 0.8

row,Substance,amyloid nucleation score
1,LLCGSCWFYTMGHVSPNKRI,0.862 ± 0.11
2,INIYSKELSNDGFSTLHYFM,inactive
3,IRSMGRPTRKLCEPGFSALE,inactive
4,ILPPNWATSRVNAAGWFLGQ,inactive
5,FLFTFKIHPLGGMFGVLILS,inactive
6,ASILEFPRSTKSTSLGRSGR,inactive
7,AHVALR,inactive
8,HIMSEGHSLAMGCTCSNNYP,inactive
9,ILLGIEAPCVSITYYFKTFL,1.32 ± 0.13
10,FLYRDDDHSYVSESDLNSCS,inactive
11,CNVRFCIDFMIFMVISDSKD,1.11 ± 0.14
12,KIFYYTWYSLSYTIQLYGLQ,inactive
13,VMGDSVRIAELQIWAEINGL,1.07 ± 0.14
14,NFMCFLVFHDLYEGQGYELR,2.3 ± 0.089
15,KFVDDRKVCLVLHH,inactive
16,TWLMFIFNSRYL,1.51 ± 0.074
17,DGRCKMLPVESGGAC,inactive
18,CAVYCNLNDVIGVFTILQRS,inactive
19,IFHMVVLVLAGKFILVISCS,inactive
20,YVSRDVGNRNATSY,inactive
21,DSGSHNDCNGCSNY,inactive
22,LDLSSYVHSTLEPGQWKRSR,inactive
23,CIVRIVQST,inactive

row,Substance,amyloid nucleation score
1,LTFCVSMKCKIW,inactive
2,VDVFK,inactive
3,EVCWVSEWQLIVMRFSCTWL,inactive
4,SDYLRMVVTYPQTLLYQGTK,inactive
5,LSLWMGVEDFVLCGSVNTSR,inactive
6,SLPACKSGVKNTYVLYLTWN,1.19 ± 0.11
7,GCHLVSCRRTGAL,inactive
8,PVRIVLVKPGIFMLDVTYSP,inactive
9,RLPLPL,inactive
10,FNALSWSVDFLWYARTTCVD,inactive
11,STMHELYV,inactive
12,PWSWWTHYTSGCQYQFGYRG,-0.749 ± 1.1
13,LNCLRMSLLC,inactive
14,HQIQLVATHPTEILHAGTSN,inactive
15,MVVRDDKIWIAFRCLYDCCV,inactive
16,RHGSCMTVCVYSSMLSYRST,0.163 ± 0.31
17,PSSSDGSMHLYIILQTLLFF,1.49 ± 0.11
18,LYVATS,inactive
19,DRAFYYTLKYLRD,inactive
20,RRTMSSLFFKFDLH,inactive
